Measured values reported in patent US20230407373A1 (priority 2020, published 2023).
Where two headings read alike, the source gives them in different places.

System: HCoV-OC43 gRNA and sgRNA
Assay type: binding
Settings: for target (unweighted spectral count, OC43 Probe II capture): FDR<10%; for target (unweighted spectral count, OC43 Probe II): OC43 Probe II capture on infected cells; for background (unweighted spectral count, no-probe control): no-probe control on infected cells
[1] = 36 hpi, type n_36_v, tested against no-probe control

| Molecule | target (unweighted spectral count, OC43 Probe II capture) [1] | further results |
| --- | --- | --- |
| SRP72 (protein, UniProt O76094 2-671, looked up) Signal recognition particle …: ASGGSGGVSVPALWSEVNRYGQNGDFTRALKTVNKILQINKDDVTALHCKVVCLIQNGSFKEALNVINTHTKVLANNSLSFEKAYCEYRLNRIENALKTIESANQQTDKLKELYGQVLYRLERYDECLAVYRDLVRNSQDDYDEERKTNLSAVVAAQSNWEKVVPENLGLQEGTHELCYNTACALIGQGQLNQAMKILQKAEDLCRRSLSEDTDGTEEDPQAELAIIHGQMAYILQLQGRTEEALQLYNQIIKLKPTDVGLLAVIANNIITINKDQNVFDSKKKVKLTNAEGVEFKLSKKQLQAIEFNKALLAMYTNQAEQCRKISASLQSQSPEHLLPVLIQAAQLCREKQHTKAIELLQEFSDQHPENAAEIKLTMAQLKISQGNISKACLILRSIEELKHKPGMVSALVTMYSHEEDIDSAIEVFTQAIQWYQNHQPKSPAHLSLIREAANFKLKYGRKKEAISDLQQLWKQNPKDIHTLAQLISAYSLVDPEKAKALSKHLPSSDSMSLKVDVEALENSAGATYIRKKGGKVTGDSQPKEQGQGDLKKKKKKKKGKLPKNYDPKVTPDPERWLPMRERSYYRGRKKGKKKDQIGKGTQGATAGASSELDASKTVSSPPTSPRPGSAATVSASTSNIIPPRHQKPAGAPATKKKQQQKKKKGGKGGW | 4 |  |
| TFB1M (protein, UniProt Q8WVM0 28-346, looked up) Dimethyladenosine transferase …: QAAKQLSQNFLLDLRLTDKIVRKAGNLTNAYVYEVGPGPGGITRSILNADVAELLVVEKDTRFIPGLQMLSDAAPGKLRIVHGDVLTFKVEKAFSESLKRPWEDDPPNVHIIGNLPFSVSTPLIIKWLENISCRDGPFVYGRTQMTLTFQKEVAERLAANTGSKQRSRLSVMAQYLCNVRHIFTIPGQAFVPKPEVDVGVVHFTPLIQPKIEQPFKLVEKVVQNVFQFRRKYCHRGLRMLFPEAQRLESTGRLLELADIDPTLRPRQLSISHFKSLCDVYRKMCDEDPQLFAYNFREELKRRKSKNEEKEEDDAENYRL | 4 |  |
| EIF2A (protein, UniProt Q9BY44 1-585, looked up) Eukaryotic translation …: MAPSTPLLTVRGSEGLYMVNGPPHFTESTVFPRESGKNCKVCIFSKDGTLFAWGNGEKVNIISVTNKGLLHSFDLLKAVCLEFSPKNTVLATWQPYTTSKDGTAGIPNLQLYDVKTGTCLKSFIQKKMQNWCPSWSEDETLCARNVNNEVHFFENNNFNTIANKLHLQKINDFVLSPGPQPYKVAVYVPGSKGAPSFVRLYQYPNFAGPHAALANKSFFKADKVTMLWNKKATAVLVIASTDVDKTGASYYGEQTLHYIATNGESAVVQLPKNGPIYDVVWNSSSTEFCAVYGFMPAKATIFNLKCDPVFDFGTGPRNAAYYSPHGHILVLAGFGNLRGQMEVWDVKNYKLISKPVASDSTYFAWCPDGEHILTATCAPRLRVNNGYKIWHYTGSILHKYDVPSNAELWQVSWQPFLDGIFPAKTITYQAVPSEVPNEEPKVATAYRPPALRNKPITNSKLHEEEPPQNMKPQSGNDKPLSKTALKNQRKHEAKKAAKQEARSDKSPDLAPTPAPQSTPRNTVSQSISGDPEIDKKIKNLKKKLKAIEQLKEQAATGKQLEKNQLEKIQKETALLQELEDLELGI | 4 | target (unweighted spectral count, OC43 Probe II) (type n_48_v, 48 hpi): 5; background (unweighted spectral count, no-probe control) (type n_48_v, 48 hpi): 1 |
| C8orf33 (protein, UniProt Q9H7E9 2-229, looked up) UPF0488 protein C8orf33: AALGHLAGEAAAAPGPGTPCASRGARLPGPVSSARNPSTVCLCPEQPTCSNADSRAHPLGDEGGTASKKQKNKKKTRNRASVANGGEKASEKLAPEEVPLSAEAQAQQLAQELAWCVEQLELGLKRQKPTPKQKEQAIGAIRTLRSKRTPLPRKRQLMHSLFGDYRAQMEAEWREALRALRAAAYSAQVQPVDGATRKKSQRVCRPRSIWRAKATLDMPDEEFRFNFF | 4 |  |
| GNL3 (protein, UniProt Q9BVP2 1-549, looked up) Guanine nucleotide-binding …: MKRPKLKKASKRMTCHKRYKIQKKVREHHRKLRKEAKKRGHKKPRKDPGVPNSAPFKEALLREAELRKQRLEELKQQQKLDRQKELEKKRKLETNPDIKPSNVEPMEKEFGLCKTENKAKSGKQNSKKLYCQELKKVIEASDVVLEVLDARDPLGCRCPQVEEAIVQSGQKKLVLILNKSDLVPKENLESWLNYLKKELPTVVFRASTKPKDKGKITKRVKAKKNAAPFRSEVCFGKEGLWKLLGGFQETCSKAIRVGVIGFPNVGKSSIINSLKQEQMCNVGVSMGLTRSMQVVPLDKQITIIDSPSFIVSPLNSSSALALRSPASIEVVKPMEAASAILSQADARQVVLKYTVPGYRNSLEFFTVLAQRRGMHQKGGIPNVEGAAKLLWSEWTGASLAYYCHPPTSWTPPPYFNESIVVDMKSGFNLEELEKNNAQSIRAIKGPHLANSILFQSSGLTNGIIEEKDIHEELPKRKERKQEEREDDKDSDQETVDEEVDENSSGMFAAEETGEALSEETTAGEQSTRSFILDKIIEEDDAYDFSTDYV | 4 |  |
| TUBB (protein, UniProt P07437 1-444, looked up) Tubulin beta chain: MREIVHIQAGQCGNQIGAKFWEVISDEHGIDPTGTYHGDSDLQLDRISVYYNEATGGKYVPRAILVDLEPGTMDSVRSGPFGQIFRPDNFVFGQSGAGNNWAKGHYTEGAELVDSVLDVVRKEAESCDCLQGFQLTHSLGGGTGSGMGTLLISKIREEYPDRIMNTFSVVPSPKVSDTVVEPYNATLSVHQLVENTDETYCIDNEALYDICFRTLKLTTPTYGDLNHLVSATMSGVTTCLRFPGQLNADLRKLAVNMVPFPRLHFFMPGFAPLTSRGSQQYRALTVPELTQQVFDAKNMMAACDPRHGRYLTVAAVFRGRMSMKEVDEQMLNVQNKNSSYFVEWIPNNVKTAVCDIPPRGLKMAVTFIGNSTAIQELFKRISEQFTAMFRRKAFLHWYTGEGMDEMEFTEAESNMNDLVSEYQQYQDATAEEEEDFGEEAEEEA |  | target (unweighted spectral count) (OC43 Probe II, 12 hpi (type n_12_v), infected cells, tested against no-probe control): 11; target (unweighted spectral count, OC43 Probe II) (type n_36_v, 36 hpi): 11; background (unweighted spectral count, no-probe control) (type n_36_v, 36 hpi): 4 |
| DHX15 (protein, UniProt O43143 1-795, looked up) ATP-dependent RNA helicase …: MSKRHRLDLGEDYPSGKKRAGTDGKDRDRDRDREDRSKDRDRERDRGDREREREKEKEKELRASTNAMLISAGLPPLKASHSAHSTHSAHSTHSTHSAHSTHAGHAGHTSLPQCINPFTNLPHTPRYYDILKKRLQLPVWEYKDRFTDILVRHQSFVLVGETGSGKTTQIPQWCVEYMRSLPGPKRGVACTQPRRVAAMSVAQRVADEMDVMLGQEVGYSIRFEDCSSAKTILKYMTDGMLLREAMNDPLLERYGVIILDEAHERTLATDILMGVLKEVVRQRSDLKVIVMSATLDAGKFQIYFDNCPLLTIPGRTHPVEIFYTPEPERDYLEAAIRTVIQIHMCEEEEGDLLLFLTGQEEIDEACKRIKREVDDLGPEVGDIKIIPLYSTLPPQQQQRIFEPPPPKKQNGAIGRKVVVSTNIAETSLTIDGVVFVIDPGFAKQKVYNPRIRVESLLVTAISKASAQQRAGRAGRTRPGKCFRLYTEKAYKTEMQDNTYPEILRSNLGSVVLQLKKLGIDDLVHFDFMDPPAPETLMRALELLNYLAALNDDGDLTELGSMMAEFPLDPQLAKMVIASCDYNCSNEVLSITAMLSVPQCFVRPTEAKKAADEAKMRFAHIDGDHLTLLNVYHAFKQNHESVQWCYDNFINYRSLMSADNVRQQLSRIMDRFNLPRRSTDFTSRDYYINIRKALVTGYFMQVAHLERTGHYLTVKDNQVVQLHPSTVLDHKPEWVLYNEFVLTTKNYIRTCTDIKPEWLVKIAPQYYDMSNFPQCEAKRQLDRIIAKLQSKEYSQY |  | target (unweighted spectral count, OC43 Probe II) (type n_48_v, 48 hpi): 13; background (unweighted spectral count, no-probe control) (type n_48_v, 48 hpi): 3 |
| UBAP2 (protein, UniProt Q5T6F2 1-1119, looked up) Ubiquitin-associated protein 2: MMTSVSSDHCRGAREKPQISAAQSTQPQKQVVQATAEQMRLAQVIFDKNDSDFEAKVKQLMEVTGKNQDECIVALHDCNGDVNKAINILLEGNSDTTSWETVGCKKKNFAKENSENKENREKKSEKESSRGRGNNNRKGRGGNRGREFRGEENGIDCNQVDKPSDRGKRARGRGFGRGRGRGAGRFSTQGMGTFNPADYSDSTSTDVCGTKLVVWEAAQNGADEGTELASNTHNIAQDLSNKSSYGLKGAWKNSVEEWTTEDWTEDLSETKVFTASSAPAENHILPGQSIDLVALLQKPVPHSQASEANSFETSQQQGFGQALVFTNSQHNNQMAPGTGSSTAVNSCSPQSLSSVLGSGFGELAPPKMANITSSQILDQLKAPSLGQFTTTPSTQQNSTSHPTTTTSWDLKPPTSQSSVLSHLDFKSQPEPSPVLSQLSQRQQHQSQAVTVPPPGLESFPSQAKLRESTPGDSPSTVNKLLQLPSTTIENISVSVHQPQPKHIKLAKRRIPPASKIPASAVEMPGSADVTGLNVQFGALEFGSEPSLSEFGSAPSSENSNQIPISLYSKSLSEPLNTSLSMTSAVQNSTYTTSVITSCSLTSSSLNSASPVAMSSSYDQSSVHNRIPYQSPVSSSESAPGTIMNGHGGGRSQQTLDTPKTTGPPSALPSVSSLPSTTSCTALLPSTSQHTGDLTSSPLSQLSSSLSSHQSSLSAHAALSSSTSHTHASVESASSHQSSATFSTAATSVSSSASSGASLSSSMNTANSLCLGGTPASASSSSSRAAPLVTSGKAPPNLPQGVPPLLHNQYLVGPGGLLPAYPIYGYDELQMLQSRLPVDYYGIPFAAPTALASRDGSLANNPYPGDVTKFGRGDSASPAPATTPAQPQQSQSQTHHTAQQPFVNPALPPGYSYTGLPYYTGMPSAFQYGPTMFVPPASAKQHGVNLSTPTPPFQQASGYGQHGYSTGYDDLTQGTAAGDYSKGGYAGSSQAPNKSAGSGPGKGVSVSSSTTGLPDMTGSVYNKTQTFDKQGFHAGTPPPFSLPSVLGSTGPLASGAAPGYAPPPFLHILPAHQQPHSQLLHHHLPQDAQSGSGQRSQPSSLQPKSQASKPAYGNSPYWTN | 4 |  |
| NOP58 (protein, UniProt Q9Y2X3 1-529, looked up) Nucleolar protein 58: MLVLFETSVGYAIFKVLNEKKLQEVDSLWKEFETPEKANKIVKLKHFEKFQDTAEALAAFTALMEGKINKQLKKVLKKIVKEAHEPLAVADAKLGGVIKEKLNLSCIHSPVVNELMRGIRSQMDGLIPGVEPREMAAMCLGLAHSLSRYRLKFSADKVDTMIVQAISLLDDLDKELNNYIMRCREWYGWHFPELGKIISDNLTYCKCLQKVGDRKNYASAKLSELLPEEVEAEVKAAAEISMGTEVSEEDICNILHLCTQVIEISEYRTQLYEYLQNRMMAIAPNVTVMVGELVGARLIAHAGSLLNLAKHAASTVQILGAEKALFRALKSRRDTPKYGLIYHASLVGQTSPKHKGKISRMLAAKTVLAIRYDAFGEDSSSAMGVENRAKLEARLRTLEDRGIRKISGTGKALAKTEKYEHKSEVKTYDPSGDSTLPTCSKKRKIEQVDKEDEITEKKAKKAKIKVKVEEEEEEKVAEEEETSVKKKKKRGKKKHIKEEPLSEEEPCTSTAIASPEKKKKKKKKRENED | 4 |  |
